{
  "source": "patent US20180273617A1",
  "about": "(AstraZeneca / MedImmune, published 2018)",
  "binders": {"B1": {"name": "anti-ASCT2 antibody 17c10 conjugated to tubulysin AZ1508 (antibody, V domains shown)", "VH": "QVQLQQWGAGLLKPSETLSLTCAVYGGSFSGYYWSWIRQPPGKGLEWIGEIHHSGGANYNPSLKSRVTISVDTSKNQFSLKLTSVTAADTAVYYCARGQGKNWHYDYFDYWGQGTLVTVSS", "VL": "DIQMTQSPSTLSTSVGDRVTLTCRASQSIRSWLAWYQQNPGKAPKLLIYKASILKIGVPSRFSGSGSGTDFTLTITSLQPDDFATYYCQQYYSYSRTFGQGTKVEIK", "modifications": "tubulysin AZ1508 conjugated to a cysteine by a thiol-maleimide linkage; site not stated for these assays (engineered cysteine 239i or native cysteines)"}},
  "target": "T1, human ASCT2 (SLC1A5) (human, UniProt Q15758 1-541)",
  "T1 sequence (looked up)": "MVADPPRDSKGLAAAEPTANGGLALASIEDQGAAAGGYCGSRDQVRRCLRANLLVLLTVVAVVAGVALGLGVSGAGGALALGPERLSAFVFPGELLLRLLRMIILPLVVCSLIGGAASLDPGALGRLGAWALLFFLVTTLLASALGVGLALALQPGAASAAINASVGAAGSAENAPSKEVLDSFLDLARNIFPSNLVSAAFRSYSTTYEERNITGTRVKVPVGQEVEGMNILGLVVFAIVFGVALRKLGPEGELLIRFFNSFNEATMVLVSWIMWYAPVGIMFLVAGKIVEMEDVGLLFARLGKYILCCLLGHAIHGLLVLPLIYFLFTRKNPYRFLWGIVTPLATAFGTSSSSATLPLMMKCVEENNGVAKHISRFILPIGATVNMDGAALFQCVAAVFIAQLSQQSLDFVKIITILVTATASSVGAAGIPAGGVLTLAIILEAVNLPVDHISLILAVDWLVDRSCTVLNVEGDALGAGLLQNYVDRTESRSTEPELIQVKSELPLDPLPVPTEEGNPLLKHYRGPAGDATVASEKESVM",
  "test": "cell-based or functional assay",
  "data": [
    {"binder": "B1", "values": [
      {"measurement": "IC50 (ng/ml), cytotoxic killing of SKMEL-2 cells, ASCT1-shRNA1 knockdown", "result": 7.59, "unit": "ng/mL"},
      {"measurement": "IC50 (ng/ml), cytotoxic killing of SKMEL-2 cells, ASCT1-shRNA2 knockdown", "result": 4.96, "unit": "ng/mL"},
      {"measurement": "IC50 (ng/ml), cytotoxic killing of SKMEL-2 cells, ASCT2-shRNA knockdown", "result": 205, "unit": "ng/mL"},
      {"measurement": "IC50 (ng/ml), cytotoxic killing of SKMEL-2 cells, NTshRNA (non-target control)", "result": 14.3, "unit": "ng/mL"}
    ]}
  ]
}
